Measured values reported in patent US10945997B2, “Polymer derivative of macrolide immunosuppressant” (Nippon Kayaku Kabushiki Kaisha, priority 2016, dated 2021).
Like-named read-outs stand apart in the source and are kept apart here. Marks after values point to notes of the source that are not given here.

Tests used:
[1] = rats; cited from earlier work
[2] = Blood concentration profile in rats (1)
Description: Blood Concentration Profile in Rats (1)
(§1) At 5 minutes, 1 hour, 6 hours, 24 hours, and 72 hours after administration, blood was collected through the jugular vein under isoflurane anesthesia successively in an amount of 0.3 mL each time, and the tacrolimus concentration in the collected blood was measured.

[3] = tested on: rat collagen-induced arthritis; assay: Anti-inflammatory effect for rat collagen-induced arthritis (1); assay type: in vivo; conditions: 5 mg/kg, q7 d × 4, i.v., DA rats, average score 0-5, footnote: Score 29 d
Description: Anti-Inflammatory Effect for Rat Collagen-Induced Arthritis (1)
0.3 mg of bovine articular cartilage-derived type II collagen (immunological grade; Collagen Research Center, Ltd.) was intradermally administered on the dorsal side of nine-week old female DA rats (Japan SLC, Inc.), and thereby collagen-induced arthritis was induced in the rats. […] As a control, a non-administered group was provided. Determination of arthritis was made by scoring based on visual inspection.
From the time point after the sensitization with bovine articular cartilage-derived type II collagen, the progress of inflammation in the right hind limb and the left hind limb was monitored. It was determined that the onset of collagen-induced arthritis occurred when reddening was recognized in the toes of the right hind limb or the left hind limb. The extent of arthritis was evaluated in six stages according to the following scores from 0 to 5. […]

[4] = rat, in vivo, iv, 5 mg/kg
Description: Blood Concentration Profile in Rats (1)
as §1

Compound | signs caused by intravenous administration [1] | Tmax ([2]; female SD rats, i.v. once 5 mg/kg, tacrolimus in blood) | concentration at 72 h ([2]; female, SD, rat, whole blood, iv, 5 mg/kg) | Arthritis score (29 d) [3] | AUCinf. [4] | Cmax [4] | MRTinf. [4] | MRTinf. compared to tacrolimus [4] | Tmax [4] | T½ [4] | blood concentration half-life compared to tacrolimus [4]
C=CC[C@@H]1/C=C(\C)C[C@H](C)C[C@H](OC)[C@H]2O[C@@](O)(C(=O)C(=O)N3CCCC[C@H]3C(=O)O[C@H](/C(C)=C/[C@@H]3CC[C@@H](O)[C@H](OC)C3)[C@H](C)[C@@H](O)CC1=O)[C@H](C)C[C@@H]2OC [Tacrolimus, tacrolimus] | slight respiratory distress, a decrease in locomotor activity, a prone position, stereotyped behavior | 5 min | 0.273 ng/mL |  |  |  |  |  |  |  | 
Tacrolimus-Bonded Polyethylene Glycol-αβ-Polyaspartic Acid Block Copolymer [Comparative Example 1] |  |  |  | 2.6* | 1050 ng·h/mL | 280 ng/mL | 11.6 h | prolongation | 5 min | 9.57 h | prolongation
